The record followed here is paper PMC11012335, “Hfq-Antisense RNA I Binding Regulates RNase E-Dependent RNA Stability and ColE1 Plasmid Copy Number”.

The target of the series is Hfq WT (Escherichia coli K-12 MG1655, UniProt P0A6X3 1-102). The series is described as follows: EMSA; EMSA: 20 mM Tris-HCl pH 7.6, 0.5 M NaCl, 1 mM EDTA, 1% glycerol, 20 min at 25 C; native PAGE in 0.5x TBE at 4 C. Particulars: protein: recombinant; tags: His tag removed with AcTEV protease; label: 3' fluorescein; single-stranded.

GGGACAGUAUUUG (ssRNA, 3' fluorescein) [BR13]: the binding result was “binds”.
